We go through 16 sequences from the supplement of paper PMC10724198.

± gives the standard deviation of the averaged measurements.

The test system of data set [1] is Saccharomyces cerevisiae. As to the kind of experiment: protein stability index of tFT-peptide fusion (C-terminal peptide) (PSI (0-1 scale)); higher = more stable (slower turnover). The settings on record: genetic background: wild type; temperature: 30 C.
Data set [2] deals with Saccharomyces cerevisiae. The description is as above. As to the method:
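MPS profiling in S. cerevisiae of the tFT-X12 degron library: putative degron peptides plus stable controls, 12 aa, fused to the C-terminus of a sfGFP-mCherry timer. Cells are FACS-sorted into 8 mCherry/sfGFP bins and deep-sequenced. PSI runs from 0 (unstable) to 1 (stable). Backgrounds are wild type, das1Δ and doa10Δ at 30 °C, and wild type, das1Δ, cdc34-1 and cdc53-1 at 37 °C; 2-3 technical replicates each.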

The mark [3] stands for this setting: genetic background: cdc34-1, temperature: 37 C.
[4] abbreviates: genetic background: cdc53-1, temperature: 37 C.
[5] abbreviates: genetic background: das1 deletion, temperature: 30 C.
Setting [6] is: genetic background: das1 deletion, temperature: 37 C.
Setting [7] is: genetic background: doa10 deletion, temperature: 30 C.
Setting [8] is: genetic background: wild type, temperature: 30 C.
The mark [9] stands for this setting: genetic background: wild type, temperature: 37 C.
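Also: PSI is a weighted mean of sequencing reads over stability bins, variants kept only with over 10 reads, mCherry proximal and sfGFP distal, peptide attached via GGGS linker.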

On to AEIVCLTDGLLF, for which the protein stability index in the data set on Saccharomyces cerevisiae [1] is 0.5 ± 0.2; in the data set with Saccharomyces cerevisiae [2] (setting [3]) it was 0.715 ± 0.012; in the data set with Saccharomyces cerevisiae [2] (setting [4]), 0.758 ± 0.038; in the data set on Saccharomyces cerevisiae [2] (setting [5]), 0.623 ± 0.013; in the data set on Saccharomyces cerevisiae [2] (setting [6]) it was 0.7252 ± 0.0028; in the data set on Saccharomyces cerevisiae [2] (setting [7]) it was 0.641 ± 0.028. In addition, the protein stability index with Saccharomyces cerevisiae [2] (setting [8]) worked out at 0.665 ± 0.024; in the data set with Saccharomyces cerevisiae [2] (setting [9]) it was 0.707 ± 0.0076.
For the sequence AFFLLVSLLVSP, the protein stability index with Saccharomyces cerevisiae [1] turned out to be 0.204 ± 0.097; in the data set on Saccharomyces cerevisiae [2] (setting [3]), 0.0637 ± 0.025; with Saccharomyces cerevisiae [2] (setting [4]) it was 0.0989 ± 0.021; in the data set with Saccharomyces cerevisiae [2] (setting [5]), 0.122 ± 0.046; with Saccharomyces cerevisiae [2] (setting [6]), 0.219 ± 0.0041; in the data set with Saccharomyces cerevisiae [2] (setting [7]), 0.0944 ± 0.0098. Also, the protein stability index in the data set on Saccharomyces cerevisiae [2] (setting [8]) was 0.132 ± 0.041; with Saccharomyces cerevisiae [2] (setting [9]), 0.186 ± 0.0021.
AFPSSVILMVFS: the protein stability index in the data set on Saccharomyces cerevisiae [1] is 0.332 ± 0.019; in the data set with Saccharomyces cerevisiae [2] (setting [3]), 0.323 ± 0.036; in the data set with Saccharomyces cerevisiae [2] (setting [4]) it was 0.32 ± 0.034; in the data set on Saccharomyces cerevisiae [2] (setting [5]) it was 0.29 ± 0.032; with Saccharomyces cerevisiae [2] (setting [6]) it was 0.425 ± 0.0063; in the data set with Saccharomyces cerevisiae [2] (setting [7]), 0.228 ± 0.0063. In addition, the protein stability index turned out to be 0.287 ± 0.018 in the data set on Saccharomyces cerevisiae [2] (setting [8]) and 0.3872 ± 0.0029 in the data set on Saccharomyces cerevisiae [2] (setting [9]).
Take AFVVYSGSHGLV: the protein stability index was 0.57 ± 0.2 in the data set with Saccharomyces cerevisiae [1]; 0.686 ± 0.0094 in the data set on Saccharomyces cerevisiae [2] (setting [3]); 0.75 ± 0.032 in the data set on Saccharomyces cerevisiae [2] (setting [4]); 0.659 ± 0.014 in the data set with Saccharomyces cerevisiae [2] (setting [5]); 0.7518 ± 0.0027 in the data set with Saccharomyces cerevisiae [2] (setting [6]); 0.648 ± 0.011 with Saccharomyces cerevisiae [2] (setting [7]). The results for the protein stability index with Saccharomyces cerevisiae [2] (setting [8]) and in the data set with Saccharomyces cerevisiae [2] (setting [9]) were 0.654 ± 0.014 and 0.7186 ± 0.003, respectively.
Regarding AGALAVALPCIC, the protein stability index was 0.5 ± 0.046 in the data set with Saccharomyces cerevisiae [1]; 0.493 ± 0.011 in the data set with Saccharomyces cerevisiae [2] (setting [3]); 0.506 ± 0.018 in the data set on Saccharomyces cerevisiae [2] (setting [4]); 0.399 ± 0.03 with Saccharomyces cerevisiae [2] (setting [5]); 0.531 ± 0.011 with Saccharomyces cerevisiae [2] (setting [6]); 0.316 ± 0.0093 with Saccharomyces cerevisiae [2] (setting [7]). In addition, the figures for the protein stability index in the data set on Saccharomyces cerevisiae [2] (setting [8]) and in the data set with Saccharomyces cerevisiae [2] (setting [9]) were 0.358 ± 0.028 and 0.48 ± 0.011, respectively.
For AGGGGRFWVCVG, the protein stability index in the data set on Saccharomyces cerevisiae [1] was 0.364 ± 0.11; with Saccharomyces cerevisiae [2] (setting [3]) it was 0.656 ± 0.027; with Saccharomyces cerevisiae [2] (setting [4]), 0.7348 ± 0.0059; in the data set on Saccharomyces cerevisiae [2] (setting [5]), 0.6377 ± 0.0058; in the data set on Saccharomyces cerevisiae [2] (setting [6]) it was 0.726 ± 0.02; with Saccharomyces cerevisiae [2] (setting [7]), 0.215 ± 0.00078. In addition, the values for the protein stability index in the data set with Saccharomyces cerevisiae [2] (setting [8]) and in the data set with Saccharomyces cerevisiae [2] (setting [9]) were 0.258 ± 0.028 and 0.5539 ± 0.0019, respectively.
On to ALLVLTVSYVFS, for which the protein stability index stood at 0.167 ± 0.022 in the data set on Saccharomyces cerevisiae [1]; 0.045 ± 0.011 with Saccharomyces cerevisiae [2] (setting [3]); 0.0772 ± 0.044 with Saccharomyces cerevisiae [2] (setting [4]); 0.0924 ± 0.028 in the data set on Saccharomyces cerevisiae [2] (setting [5]); 0.188 ± 0.0081 with Saccharomyces cerevisiae [2] (setting [6]); 0.057 ± 0.035 with Saccharomyces cerevisiae [2] (setting [7]). Moreover, the protein stability index in the data set on Saccharomyces cerevisiae [2] (setting [8]) came out at 0.0839 ± 0.013; with Saccharomyces cerevisiae [2] (setting [9]), 0.153 ± 0.031.
On to ALVWYSLSIIVN, for which the protein stability index amounted to 0.205 ± 0.064 in the data set with Saccharomyces cerevisiae [1]; 0.0193 ± 0.0028 in the data set with Saccharomyces cerevisiae [2] (setting [3]); 0.0815 ± 0.086 in the data set on Saccharomyces cerevisiae [2] (setting [4]); 0.0515 ± 0.03 in the data set on Saccharomyces cerevisiae [2] (setting [5]); 0.0682 ± 0.0034 with Saccharomyces cerevisiae [2] (setting [6]); 0.0397 ± 0.0011 in the data set on Saccharomyces cerevisiae [2] (setting [7]). Also, the values for the protein stability index with Saccharomyces cerevisiae [2] (setting [8]) and in the data set on Saccharomyces cerevisiae [2] (setting [9]) were 0.0403 ± 0.021 and 0.0736 ± 0.04, respectively.
Regarding APGGRGAAGPSC, the protein stability index in the data set with Saccharomyces cerevisiae [1] was found to be 0.69 ± 0.029; with Saccharomyces cerevisiae [2] (setting [3]), 0.67 ± 0.06; in the data set with Saccharomyces cerevisiae [2] (setting [4]), 0.7207 ± 0.0065; with Saccharomyces cerevisiae [2] (setting [5]) it was 0.631 ± 0.036; with Saccharomyces cerevisiae [2] (setting [6]) it was 0.751 ± 0.033; in the data set with Saccharomyces cerevisiae [2] (setting [7]) it was 0.639 ± 0.021. Also, the figures for the protein stability index in the data set with Saccharomyces cerevisiae [2] (setting [8]) and in the data set on Saccharomyces cerevisiae [2] (setting [9]) were 0.655 ± 0.033 and 0.704 ± 0.018, respectively.
As for APPLPFPTPPPS, the protein stability index in the data set with Saccharomyces cerevisiae [2] (setting [3]) was found to be 0.68 ± 0.031; with Saccharomyces cerevisiae [2] (setting [4]) it was 0.747 ± 0.034; in the data set on Saccharomyces cerevisiae [2] (setting [5]) it was 0.644 ± 0.042; with Saccharomyces cerevisiae [2] (setting [6]) it was 0.693 ± 0.038; with Saccharomyces cerevisiae [2] (setting [7]), 0.647 ± 0.029; in the data set on Saccharomyces cerevisiae [2] (setting [8]), 0.633 ± 0.029. The sequence also registered a protein stability index with Saccharomyces cerevisiae [2] (setting [9]) of 0.678 ± 0.0098.
With ARALLGVGWYWV, the protein stability index was determined as 0.417 ± 0.024 in the data set with Saccharomyces cerevisiae [1]; 0.654 ± 0.015 with Saccharomyces cerevisiae [2] (setting [3]); 0.7854 ± 0.0065 in the data set on Saccharomyces cerevisiae [2] (setting [4]); 0.645 ± 0.018 in the data set on Saccharomyces cerevisiae [2] (setting [5]); 0.761 ± 0.02 in the data set on Saccharomyces cerevisiae [2] (setting [6]); 0.225 ± 0.014 in the data set on Saccharomyces cerevisiae [2] (setting [7]). Besides, the values for the protein stability index in the data set with Saccharomyces cerevisiae [2] (setting [8]) and with Saccharomyces cerevisiae [2] (setting [9]) were 0.272 ± 0.02 and 0.537 ± 0.0059, respectively.
Regarding ARCKRSLSGGIG, the protein stability index with Saccharomyces cerevisiae [1] was 0.588 ± 0.14; in the data set on Saccharomyces cerevisiae [2] (setting [3]) it was 0.489 ± 0.034; in the data set with Saccharomyces cerevisiae [2] (setting [4]), 0.579 ± 0.02; with Saccharomyces cerevisiae [2] (setting [5]) it was 0.512 ± 0.012; in the data set with Saccharomyces cerevisiae [2] (setting [6]), 0.5452 ± 0.00083; with Saccharomyces cerevisiae [2] (setting [7]), 0.531 ± 0.0073. Moreover, the protein stability index in the data set with Saccharomyces cerevisiae [2] (setting [8]) worked out at 0.524 ± 0.022; with Saccharomyces cerevisiae [2] (setting [9]) it was 0.54 ± 0.011.
ARSGGYLMVVLV: the protein stability index in the data set on Saccharomyces cerevisiae [1] worked out at 0.463 ± 0.031; in the data set on Saccharomyces cerevisiae [2] (setting [3]), 0.56 ± 0.033; in the data set on Saccharomyces cerevisiae [2] (setting [4]) it was 0.599 ± 0.011; in the data set on Saccharomyces cerevisiae [2] (setting [5]), 0.41 ± 0.032; in the data set on Saccharomyces cerevisiae [2] (setting [6]), 0.601 ± 0.011; with Saccharomyces cerevisiae [2] (setting [7]), 0.351 ± 0.0013. Further, the protein stability index amounted to 0.384 ± 0.023 with Saccharomyces cerevisiae [2] (setting [8]) and 0.562 ± 0.038 in the data set on Saccharomyces cerevisiae [2] (setting [9]).
Consider ASFVCWSVCALG, for which the protein stability index in the data set with Saccharomyces cerevisiae [1] was found to be 0.413 ± 0.025; in the data set with Saccharomyces cerevisiae [2] (setting [3]), 0.508 ± 0.026; in the data set on Saccharomyces cerevisiae [2] (setting [4]), 0.545 ± 0.006; in the data set with Saccharomyces cerevisiae [2] (setting [5]), 0.4 ± 0.022; in the data set on Saccharomyces cerevisiae [2] (setting [6]), 0.525 ± 0.015; in the data set with Saccharomyces cerevisiae [2] (setting [7]) it was 0.384 ± 0.029. Besides, the protein stability index in the data set on Saccharomyces cerevisiae [2] (setting [8]) is 0.398 ± 0.019; in the data set on Saccharomyces cerevisiae [2] (setting [9]), 0.5104 ± 0.0049.
Regarding ASGFLVIPLWVF, the protein stability index in the data set on Saccharomyces cerevisiae [1] was 0.294 ± 0.019; in the data set with Saccharomyces cerevisiae [2] (setting [3]), 0.41 ± 0.0072; with Saccharomyces cerevisiae [2] (setting [4]) it was 0.4653 ± 0.0021; with Saccharomyces cerevisiae [2] (setting [5]), 0.323 ± 0.029; with Saccharomyces cerevisiae [2] (setting [6]), 0.491 ± 0.022; with Saccharomyces cerevisiae [2] (setting [7]), 0.17 ± 0.0047. Besides, the protein stability index with Saccharomyces cerevisiae [2] (setting [8]) is 0.19 ± 0.018; in the data set with Saccharomyces cerevisiae [2] (setting [9]) it was 0.255 ± 0.0083.
For the sequence ASICAFFCWFLV, the protein stability index with Saccharomyces cerevisiae [1] came out at 0.419 ± 0.022; with Saccharomyces cerevisiae [2] (setting [3]), 0.527 ± 0.035; in the data set with Saccharomyces cerevisiae [2] (setting [4]), 0.58116 ± 0.00042; with Saccharomyces cerevisiae [2] (setting [5]), 0.457 ± 0.023; in the data set with Saccharomyces cerevisiae [2] (setting [6]) it was 0.601 ± 0.024; with Saccharomyces cerevisiae [2] (setting [7]), 0.326 ± 0.0088. The protein stability index in the data set with Saccharomyces cerevisiae [2] (setting [8]) turned out to be 0.321 ± 0.026; with Saccharomyces cerevisiae [2] (setting [9]), 0.497 ± 0.013.
